The text below walks through data of PMC3794606, “Transactivation specificity is conserved among p53 family proteins and depends on a response element sequence code” (Nucleic Acids Research, 2013).

Data set [1] deals with the molecule itself. The experiment in a line: crystal structure; p73DBD S139F mixed at 2:1 molar ratio with annealed 20 bp DNA (…); hanging drop, 0.1 M Tris pH 8.5, 50-125 mM sodium acetate, 20-24% PEG 3350, room temperature; 3.7 A; asymmetric unit holds two protein molecules and one 10 bp half-site, the tetramer is made by crystal symmetry.
In data set [2] the target is T1, deltaNp73delta isoform WT (UniProt O15350-4 63-403).
T1 sequence: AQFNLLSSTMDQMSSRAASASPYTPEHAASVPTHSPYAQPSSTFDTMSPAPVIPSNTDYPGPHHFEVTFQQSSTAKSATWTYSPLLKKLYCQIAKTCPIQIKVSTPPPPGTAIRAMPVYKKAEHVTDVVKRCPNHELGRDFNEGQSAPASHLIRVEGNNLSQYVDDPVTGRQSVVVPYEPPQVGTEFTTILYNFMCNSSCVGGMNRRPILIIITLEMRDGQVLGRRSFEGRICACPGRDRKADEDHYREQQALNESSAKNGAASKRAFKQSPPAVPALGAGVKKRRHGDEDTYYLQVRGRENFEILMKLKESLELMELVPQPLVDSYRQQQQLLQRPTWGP
Kind of data set: fluorescence polarization; FP: 50 nM fluorescein-DNA, 0-20000 nM protein, 30 min on ice then room temperature; buffer, salt and pH not stated. Crystals: 0.1 M Tris pH 8.5, 50-125 mM sodium acetate, 20-24% PEG 3350, room temperature. The following applies: protein: recombinant, chain copies: 4, label: fluorescein. (In general: Polarisation of emitted light reports the rotation of a fluorescent probe.)

Data set [3] deals with T2, p73 DBD S139F (human, UniProt O15350 115-312, S139F).
T2 sequence: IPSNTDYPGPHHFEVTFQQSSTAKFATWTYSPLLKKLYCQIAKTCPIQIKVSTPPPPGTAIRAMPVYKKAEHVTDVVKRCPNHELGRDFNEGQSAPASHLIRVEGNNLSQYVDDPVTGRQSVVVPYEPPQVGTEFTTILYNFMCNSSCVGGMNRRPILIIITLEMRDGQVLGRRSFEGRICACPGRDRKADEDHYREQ
The experiment in a line: fluorescence polarization; Hill 1.9 ± 0.2; FP: 50 nM fluorescein-DNA, 0-20000 nM protein, 30 min on ice then room temperature; buffer, salt and pH not stated. Crystals: 0.1 M Tris pH 8.5, 50-125 mM sodium acetate, 20-24% PEG 3350, room temperature. The conditions noted are these: protein: recombinant; chain copies: 2; label: fluorescein.

Data set [4] concerns the target T2, p73 DBD S139F. Kind of data set: fluorescence polarization; Hill 1.5 ± 0.2; FP: 50 nM fluorescein-DNA, 0-20000 nM protein, 30 min on ice then room temperature; buffer, salt and pH not stated. Crystals: 0.1 M Tris pH 8.5, 50-125 mM sodium acetate, 20-24% PEG 3350, room temperature. The conditions noted are these: protein: recombinant; chain copies: 2; label: fluorescein; self-complementary.

The target of data set [5] is T2, p73 DBD S139F. The experiment in a line: fluorescence polarization; Hill 1.7 ± 0.1; FP: 50 nM fluorescein-DNA, 0-20000 nM protein, 30 min on ice then room temperature; buffer, salt and pH not stated. Crystals: 0.1 M Tris pH 8.5, 50-125 mM sodium acetate, 20-24% PEG 3350, room temperature. The following applies: protein: recombinant; chain copies: 2; label: fluorescein; self-complementary.

B1: p73DBD S139F (human p73 DNA-binding domain, residues 115-312, S139F mutant) (domain or fragment, UniProt O15350 115-312, looked up)
chain: T2 sequence
notes: Crystallised with a 20 bp GAACA full-site DNA; On the DNA it forms a tetramer (dimer of dimers); also called p73 S139F DBD; S139F DBD mutant
On to B1, for which the stoichiometry N (in general, a count of units in the complex or per binding partner) in data set [1] was 4.

B2: 20mer GGGCA full-site (4/4 RY) (dsDNA)
DNA 1: GGGCATGCCCGGGCATGCCC
DNA 2: GGGCATGCCCGGGCATGCCC
As to B2, the Kd (usually the free concentration of one partner at which half of the binding sites on the other are occupied at equilibrium, for simple one-to-one binding) in data set [2] came to 0.16 µM; with p73 DBD S139F [3], 0.23 µM.

B3: 12mer GGGCA half-site (dsDNA)
DNA 1: TGGGCATGCCCA
DNA 2: TGGGCATGCCCA
As for B3, the Kd with p73 DBD S139F [4] turned out to be 1.54 µM.

B4: 20mer GAACA full-site (0/4 RY) (dsDNA)
DNA 1: GAACATGTTCGAACATGTTC
DNA 2: GAACATGTTCGAACATGTTC
As to B4, the Kd turned out to be 4.48 µM with p73 DBD S139F [5] and 0.94 µM in data set [2] (self-complementary).
